{"source": "patent US20150337336A1", "about": "(PHYTOGENE, published 2015)", "proteins": {"B1": {"name": "mutant cinnamic acid decarboxylase FDC (K190E) (enzyme)", "chain": "MRKLNPALEFRDFIQVLKDEDDLIEITEEIDPNLEVGAIMRKAYESHLPAPLFKNLKGASKDLFSILGCPAGLRSKEKGDHGRIAHHLGLDPKTTIKEIIDYLLECKEKEPLPPITVPVSSAPCKTHILSEEKIHLQSLPTPYLHVSDGGKYLQTYGMWILQTPDKKWTNWSIARGMVVDDKHITGLVIEPQHIRQIADSWAAIGKANEIPFALCFGVPPAAILVSSMPIPEGVSESDYVGAILGESVPVVKCETNDLMVPATSEMVFEGTLSLTDTHLEGPFGEMHGYVFKSQGHPCPLYTVKAMSYRDNAILPVSNPGLCTDETHTLIGSLVATEAKELAIESGLPILDAFMPYEAQALWLILKVDLKGLQALKTTPEEFCKKVGDIYFRTKVGFIVHEIILVADDIDIFNFKEVIWAYVTRHTPVADQMAFDDVTSFPLAPFVSQSSRSKTMKGGKCVTNCIFRQQYERSFDYITCNFEKGYPKGLVDKVNENWKRYGYK", "notes": "It was purified by the same process as FDC1: an N-terminal 6-His/SUMO tag was cleaved off by hydrolase; It was crystallised in complex with the small molecule 3-hydroxyl cinnamic acid; also called FDC1 K190E mutant; FDC mutant (K190E)"}}, "target": "the molecule itself", "assay": "X-ray crystal structure at 2.15 Å, space group C2, 3 chains per asymmetric unit; homodimer seen in the crystal", "procedure": "Crystals of mutant cinnamic acid decarboxylase FDC (K190E) in complex with 3-hydroxyl cinnamic acid were grown by the vapor diffusion method. Commercial screening Kit (Hampton research, Qiagen, Emerald Biosystems) was used for screening crystallization conditions. Different volume ratio of protein and reservoir were tested for crystallization. Hanging drops containing a 1:1, 1:2, or 2:1 mixture of protein (5-10 mg/ml) and crystallization buffer (10% (w/v) polyethylene glycol (PEG) 6000, 5% (w/v) 2-methyl-2,4-pantanediol (MPD), 0.1 M HEPES, pH 7.5, and 2 mM DTT) were maintained at 4° C. In particular, well diffracted crystals were grown in 7-11% (w/v) polyethylene glycol (PEG) 6000, 3% (w/v) 2-methyl-2,4-pantanediol (MPD), pH 6.5-7.5, and 2 mM DTT with 0.1% 3-hydroxyl cinnamic acid. Crystal conditions were further improved by adding 0.01M MnCl2, 0.5% (w/v) polyvinylpyrrolidone K15, 0.2M NDSB-201 or 2% (w/v) benzamidine hydrochloride as an additive.\nThe FDC(K190E) crystals grew in space group C2 with 3 chains per asymmetric unit. Unit cell dimensions for the crystal were a=249.51 Å, b=120.67 Å, c=158.49 Å, β=94.9°; Diffraction data were collected from single crystals mounted in a cryoloop and flash frozen in a nitrogen stream at 100 K and reduced with the HKL suite. Crystals were diffracted at 2.15 Å resolution. […]", "data": [{"protein": "B1", "values": [{"measurement": "binding result", "result": "binds"}]}]}
